In patent US20130224224A1 (Boehringer Ingelheim, published 2013):
Where a chain is given by its changes, count along the chain named. Names may count otherwise.

T1: human CX3CR1 (human, UniProt P49238 1-355)
T1 construct: overexpressed on CHO, BA/F3 or HEK293T cells; also called huCX3CR1; hCX3CR1
T1 sequence: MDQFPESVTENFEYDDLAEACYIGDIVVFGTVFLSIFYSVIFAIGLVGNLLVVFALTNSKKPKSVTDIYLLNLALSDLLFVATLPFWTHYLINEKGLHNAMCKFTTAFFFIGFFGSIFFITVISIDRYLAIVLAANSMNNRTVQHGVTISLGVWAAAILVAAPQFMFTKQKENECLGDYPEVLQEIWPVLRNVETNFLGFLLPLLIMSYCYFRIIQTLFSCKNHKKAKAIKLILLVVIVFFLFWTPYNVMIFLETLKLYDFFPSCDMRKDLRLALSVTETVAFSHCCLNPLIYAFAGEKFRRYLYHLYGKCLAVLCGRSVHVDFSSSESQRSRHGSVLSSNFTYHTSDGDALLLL

B1: C100CX3CR1BII043 (VHH)
VHH: EVQLVESGGGSVQPGESLRLSCAASGSIFSSNAMAWYRQAPGKRRDLVAAINSVGVTKYADSVKGRFTISRDNSKNTVYLQMNSLRPEDTAVYYCTSDPRRGWDTRYWGQGTLVTVSS
notes: 66B02 with A14P, A74S, K83R, Q108L; not shown: myc/His tag
B2: C100CX3CR1BII049 (VHH)
VHH: B1 VHH with R44Q
notes: 66B02 with A14P, R44Q, A74S, K83R, Q108L; not shown: myc/His tag
B3: C100CX3CR1BII050 (VHH)
VHH: B1 VHH with D46E
notes: 66B02 with A14P, D46E, A74S, K83R, Q108L; not shown: myc/His tag
B4: C100CX3CR1BII045 (VHH)
VHH: B1 VHH with E1D
notes: 66B02 with E1D, A14P, A74S, K83R, Q108L; not shown: myc/His tag
B5: C100CX3CR1BII048 (VHH)
VHH: B1 VHH with E16G
notes: 66B02 with A14P, E16G, A74S, K83R, Q108L; not shown: myc/His tag
B6: C100CX3CR1BII047 (VHH)
VHH: B1 VHH with S11L
notes: 66B02 with S11L, A14P, A74S, K83R, Q108L; not shown: myc/His tag
B7: C100CX3CR1BII056 (VHH)
VHH: B1 VHH with S11L, E16G, R44Q
notes: 66B02 with S11L, A14P, E16G, R44Q, A74S, K83R, Q108L; not shown: myc/His tag
B8: C100CX3CR1BII057 (VHH)
VHH: B1 VHH with S11L, E16G, D46E
notes: 66B02 with S11L, A14P, E16G, D46E, A74S, K83R, Q108L; not shown: myc/His tag
B9: CX3CR1BIIPMP61A11 (VHH)
VHH: B1 VHH with G8R, P14A, R44Q, A50V, V56I, R71G, S74A, R86K, P99A, L113Q
notes: tested as periplasmic extract; not shown: C-terminal c-myc and His6 tags
B10: CX3CR1BIIPMP54B2 (VHH)
VHH: B1 VHH with P14A, S27T, R44Q, A50G, G55D, V56I, S74A, R86K, D104N
notes: as for B9
B11: CX3CR1BIIPMP54H4 (VHH)
VHH: B1 VHH with P14A, R44Q, A50V, V56I, R71G, S74A, R86K, P99A
notes: as for B9
B12: CX3CR1BIIPMP54B1 (VHH)
VHH: B1 VHH with P14A, R44Q, A50G, V56I, S74A, V78A, R86K, L113Q
notes: as for B9
B13: CX3CR1BIIPMP61D5 (VHH)
VHH: B1 VHH with E1K, P14A, P41F, R44Q, A50L, V56I, S74A, R86K, L113Q
notes: as for B9
B14: CX3CR1BIIPMP54F6 (VHH)
VHH: B1 VHH with E1K, P14A, R44Q, V56I, S74A, R86K
notes: as for B9
B15: CX3CR1BIIPMP61F10 (VHH)
VHH: KVQLVESGGGSVQAGESLRLSCAASGTIFSSNAMAWYRQAPGKQRDLVAGINSVDITKYADSVKGRFTISRDNAKNTVYLQMNSLKPEDTAVYYCTSDPRRGWNTRYWGQGTQVTVSS
notes: as for B9
B16: CX3CR1BIIPMP54A5 (VHH)
VHH: B15 VHH with K1E, T27S, D55G, N104D, Q113L
notes: as for B9
B17: CX3CR1BIIPMP61F4 (VHH)
VHH: B1 VHH with P14A, E16A, R44Q, A50V, S53T, V56I, S74A, R86K, P99A
notes: as for B9
B18: CX3CR1BIIPMP54B5 (VHH)
VHH: B15 VHH with K1E, T27S, D55G, V78A, N104D, Q113L
notes: tested as periplasmic extract; also called CX3CR1BII54B5; not shown: C-terminal c-myc and His6 tags
B19: CX3CR1BIIPMP61D1 (VHH)
VHH: B15 VHH with K1E, T27S, P41F, G50L, D55G, N104D
notes: as for B9
B20: CX3CR1BIIPMP61G2 (VHH)
VHH: B15 VHH with K1E, E6K, T27S, G50L, D55G, N104D
notes: as for B9
B21: CX3CR1BIIPMP54A3 (VHH)
VHH: B15 VHH with K1E, T27S, D55G, N104D
notes: as for B9
B22: CX3CR1BIIPMP61C9 (VHH)
VHH: EVQLVKSGGGSVQAGESLRLSCAASGSIFSSNAMAWYRQALGKQRDLVALIDSAGITKYADSVKGRFTISRDNAKNTVYLQMNRLKPEDTAVYYCASDARRGWNTKYWGQGTLVTVSS
notes: as for B9

Target: T1, human CX3CR1
Assay: fractalkine competition FACS

% block	IC50	Binder
101%	2.2 nM	B1
101%	18 nM	B2
101%	17 nM	B3
101%	2.2 nM	B4
101%	1.9 nM	B5
101%	2.3 nM	B6
101%	16 nM	B7
99.4%	14 nM	B8

Target: T1, human CX3CR1
Assay: periplasmic extract, A647-fractalkine competition FACS, CHO-huCX3CR1
Text: Periplasmic extracts were screened in a human CX3CR1/human Fractalkine FACS competition assay to assess the blocking capacity of the expressed VHHs. Human CX3CR1 was presented on CHO cells overexpressing CX3CR1. Both a setup using cells harvested from an actively growing culture and a setup using frozen cells was used. As a detection reagent labeled fractalkine was used (R&D Systems, Minneapolis, Minn., USA) labeled with alexa647 (A647-Fractalkine) at a degree of labeling of 1. To setup the assay, first a titration series of the labeled fractalkine was performed on the CHO-huCX3CR1 cells in order to determine the EC50 value for binding. Initially screening was performed at a higher concentration of fractalkine (3 nM) to increase the assay robustness. To increase the sensitivity of the screening to a maximum, the EC30 concentration (1 nM) was chosen for subsequent screening. In brief 50 μl of periplasmic extract was added to 6 nM labeled fractalkine (50 μ;) and 200 000 CHO-huCX3CR1 cells. After one hour incubation at 4 C, cells were washed three times before read out was performed on a FACS Array (Becton Dickinson). First a gate was set on the intact cells as determined from the scatter profile. Next, dead cells were gated out by their fluorescence profile from the PI stain (Sigma, St Louis, US). The fluorescence profile from the alexa647 label was determined for each sample and used for calculation of blocking capacity. As controls, conditions were taken along where there was no VHH present in the peri extract or a known irrelevant VHH and samples were included where excess cold fractalkine was included. For each sample the percentage block was determined using the control samples to determine the assay window.

% block	Binder
78%	B9
65.3%	B10
96%	B11
92.1%	B12
94.9%	B13
96.6%	B14
73.5%	B15
92.5%	B16
94.4%	B17
92.6%	B18
68.4%	B19
82%	B20
90.8%	B21
69.4%	B22
